Laboratory results taken from patent US6884600B1, “Protein phosphatase-1 catalytic subunit interactions” (Medical Research Council London, priority 1996, dated 2005).

B1: M110-(R714-L934): chicken gizzard M110 fragment, residues 714-934 (protein)
chain: RSTRTREQENEEKEKEEKEKQDKEKQEEKKESETKDDDYRQRYSRTVEEPYHRYRPTSTSTSTSSTSSLSTSTSSLSSSSQLNRPNSLIGITSAYSRSGTKESEREGGKKEEEKEEDKSQPKSIRERRRPREKRRSTGVSFWTQDSDENEQEHQSDSEEGTNKKETQSDSLSRYDTGSLSVSSGDRYDSAQGRSGSQSYLEDRKPYCSRLEKEDSTDFKKLGTGRRFTTS
modifications: left off: large carriers
B2: MBP-M110-(R714-L934): maltose binding protein fusion of M110-(R714-L934) (protein)
chain: B1 chain
modifications: left off: large carriers
B3: M110 subunit: 110 kDa myofibrillar-binding subunit of PP1 (protein)
chain: MKMADAKQKRNEQLKRWIGSETDLEPPVVKRKKTKVKFDDGAVFLAACSSGDTEEVLRLLERGADINYANVDGLTALHQACIDDNVDMVKFLVENGANINQPDNEGWIPLHAAASCGYLDIAEYLISQGAHVGAVNSEGDTPLDIAEEEAMEELLQNEVNRQGVDIEAARKEEERIMLRDARQWLNSGHINDVRHAKSGGTALHVAAAKGYTEVLKLLIQARYDVNIKDYDGWTPLHAAAHWGKEEACRILVENLCDMEAVNKVGQTAFDVADEDILGYLEELQKKQNLLHSEKREKKSPLIESTANLDNNQTQKTFKNKETLIMEQEKNASSIESLEHEKADEEEEGKKDESSCSSEEEEDDDSESEAETDKAKTLANANTTSTQSASMTAPSVAGGQGTPTSPLKKFPTSTTKVSPKEEERKDESPASWRLGLRKTGSYGALAEITASKEAQKEKDSAGVIRSASSPRLSSSLDNKEKEKDGKGTRLAYVAPTIPRRLASTSDIDEKENRDSSASSIRSGSSYARRKWEEDVKKNSLNEGPTSLNTSYQRSGSFGRRQDDLVSSNVPSTASTVTSSAGLQKTLPASANTTTKSTTGSTSAGVQSSTSNRLWAEDSTEKEKDSVPTAVTVPVAPSVVNAAATTTAMTTATSGTVSSTSEVRERRRSYLTPVRDEESESQRKARSRQARQSRRSTQGVTLTDLQEAEKTIGRSRSTRTREQENEEKEKEEKEKQDKEKQEEKKESETKDDDYRQRYSRTVEEPYHRYRPTSTSTSTSSTSSLSTSTSSLSSSSQLNRPNSLIGITSAYSRSGTKESEREGGKKEEEKEEDKSQPKSIRERRRPREKRRSTGVSFWTQDSDENEQEHQSDSEEGTNKKETQSDSLSRYDTGSLSVSSGDRYDSAQGRSGSQSYLEDRKPYCSRLEKEDSTDFKKLYEQILAENEKLKAQLHDTNMELTDLKLQLEKTTQRQERFADRSLLEMEKRVSGKSQYLLGGKKSSRKKDI
B4: MBP-M110-(K933-I1004): maltose binding protein fusion of M110-(K933-I1004) (protein)
chain: KLYEQILAENEKLKAQLHDTNMELTDLKLQLEKTTQRQERFADRSLLEMEKRVSGKSQYLLGGKKSSRKKDI
modifications: left off: large carriers
B5: MBP-M110-(R714-I1004): maltose binding protein fusion of M110-(R714-I1004) (protein)
chain: RSTRTREQENEEKEKEEKEKQDKEKQEEKKESETKDDDYRQRYSRTVEEPYHRYRPTSTSTSTSSTSSLSTSTSSLSSSSQLNRPNSLIGITSAYSRSGTKESEREGGKKEEEKEEDKSQPKSIRERRRPREKRRSTGVSFWTQDSDENEQEHQSDSEEGTNKKETQSDSLSRYDTGSLSVSSGDRYDSAQGRSGSQSYLEDRKPYCSRLEKEDSTDFKKLYEQILAENEKLKAQLHDTNMELTDLKLQLEKTTQRQERFADRSLLEMEKRVSGKSQYLLGGKKSSRKKDI
modifications: left off: large carriers

Tested on: M21 subunit
Experiment: Far Western blotting: interaction with the M21 subunit
Type: binding, chicken
Settings: for recognised by digoxigenin-labelled M21 subunit in Far Western blotting: probe 0.2 μg/ml
Experimental: A) PP1M 5 μg (track 1), 10 μg bacterial extract containing M110-(R714-I1004) (track 2), MBP-M110-(R714-I004) 1 μg (track 3), MBP-M110-(R714-L934) 1 μg (track 4), MBP-M110-(K933-I1004) 1 μg (track 5), MBP 1 μg (track 6), M110-(M1-E309) 2 μg (lane 7) and M110-(M1-S477) 2 μg (track 8) were run on a 12% SDS/polyacrylamide gel and stained with Coomassie Blue. B) same as A) except that 10-fold less protein was electrophoresed and after transfer to nitrocellulose the proteins were probed with digoxigenin-labelled M21 subunit (0.2 μg/ml). C) same as B) except that, after electrophoresis, the proteins were transferred to nitrocellulose and probed with digoxigenin-labelled M21-(M1-L146) (0.2 μg/ml).
A) GST-M21 5 μg (track 1), M21 5 μg (track 2), M21-(M1-L146) 5 μg (track 3), M21-(M1-E110) 20 μg (track 4) and M21-(E110-K186) 5 μg (track 5) were run on 16.5% polyacrylamide gels and stained with Coomassie Blue. The marker proteins ovalbumin (43 kDa) and carbonic anhydrase (29 kDa) are indicated. B) GST-M21 0.5 μg (track 1), M21 0.5 μg (track 2), M21-M1-L146) 0.5 μg (track 3), M21-(M1-E110) 5 μg (track 4) and M21-(E110-K186) 5 μg (track 5) were electrophoresed as in A) and after transfer to nitrocellulose the blots were probed with digoxigenin-labelled MBP-M110-(K933-I1004) (0.2 μg/Ml). C) same as B) except that, after electrophoresis, the proteins were transferred to nitrocellulose and probed with digoxigenin-labelled M21 subunit (0.2 μg/ml).
PP1M (0.5 μAg) was electrophoresed on a 12% SDS/polyacrylamide gel, transferred to nitrocellulose and probed with digoxigenin-labelled M21 subunit (0.2 μg/ml) (track 1) or digoxigenin-labelled M21-(M1-L146) (0.2 μg/ml) (track 2). The positions of the M110 subunit, the M21 subunit and PP1c are marked.
Proteins were labelled with digoxigenin and Far Western analyses carried out as described, except that the digoxigenin-labelled probe was used at a concentration of 0.2 μg/ml instead of 2 μg/ml. SDS/polyacrylamide gel electrophoresis was carried out on 7.5-15% gels according to Laemmli and on 16.5% gels according to Schagger and von Jagow. Protein was estimated according to Bradford.

Chain of M21 subunit (as listed by the source): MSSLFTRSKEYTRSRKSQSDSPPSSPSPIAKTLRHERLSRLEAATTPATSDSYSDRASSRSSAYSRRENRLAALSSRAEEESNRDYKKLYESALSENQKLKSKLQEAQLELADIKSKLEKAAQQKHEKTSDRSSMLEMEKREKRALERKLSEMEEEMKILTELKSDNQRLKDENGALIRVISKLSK

Molecule | recognised by digoxigenin-labelled M21 subunit in Far Western blotting | digoxigenin-labelled probe recognises the full length M21 subunit and M21(M1-L146) in Far Western blotting
B1 | not | 
B2 |  | not
B3 | recognised | 
B4 |  | recognised
B5 |  | recognised
